Measurements from patent US20230121197A1, “ANTIBODIES SPECIFICALLY BINDING THE CARBOXYMETHYLATED CATALYTIC SUBUNIT OF PROTEIN PHOSPHATASE 2A” (Medizinische Universität Wien, priority 2020, published 2023).

Biological target: T1, PP2Ac (Homo sapiens, UniProt P67775)
T1 construct: the carboxy-terminal methyl group was chemically removed from cellular PP2Ac; endogenous in cells; host or cells: HAP1 wild type, HAP1 Lcmt-1-KO, HEK293Trex / HEK293T
Assay: Western blot of human cell lysates (HAP1, HEK293; NaOH treatment, Lcmt-1-KO)
Format: binding
Procedure: NIH3T3 mouse fibroblasts and human embryonic kidney cells (HEK293Trex) were grown in DMEM+10% FCS+2 mM L-glutamine (Sigma, G2150)+100 units/ml Penicillin/0.1 mg/ml Streptomycin at 37° C. in a 7.5% CO2 atmosphere. HAP1 wild type and HAP1 Lcmt-1-KO cells (Leucine carboxyl methyltransferase 1 deleted by CRISPR/Cas9; Horizon Discovery, #C631 and #HZGHC004373c001) were grown in Iscove's Modified Dulbecco's Medium (IMDM, Thermo Fischer Scientific, Life Technologies #12440053) supplemented with 10% (v/v) Fetal Calf Serum (FCS) (Sigma #F7524, lot 104M3333), GlutaMAX™ (Thermo Fischer Scientific, Life Technologies #35050-38, lot 1895829), and Penicillin-Streptomycin solution (Sigma, #P4333, lot 125M4781V) in a 5% CO2 atmosphere. Of note, HAP1 is a near-haploid human cell line that was derived from the chronic myelogenous leukemia (CML) cell line KBM-7 (Carette (2011), Nature 477(7364):340-3). For cell lysis, exponentially growing cells were washed once with ice-cold PBS, once with ice-cold IP-Wash buffer (20 mmol/l Tris pH 8.0, 135 mmol/l NaCl, 10% glycerol) and lysed on the petri-dish in ice-cold IP-Lyse buffer (18 mmol/l Tris pH 8.0, 122 mmol/l NaCl, 9% glycerol, 1% w/v NP-40) for 20 min at 4° C. rocking. Lysed cells were transferred to Eppendorf 1.5 ml tubes and centrifuged for 15 min at 14,000 rpm at 4° C. in a Beckman & Coulter Microfuge 18 centrifuge. The protein concentration was determined with the Protein Assay Dye Reagent (Biorad, 500-0006) and measurement of absorbance at 595 nm in a Hitachi U-2000 spectrophotometer. […]
To test these antibodies in the western blot analysis with methylated and non-methylated full-length PP2Ac the methyl group was chemically removed from cellular PP2Ac by treating lysates of the human cell line, HAP1, with NaOH, as described in Example 2. […] In agreement with the results of the NaOH experiments, […] of PP2Ac were detected in HAP1 cells that lack the PP2A methyltransferase LCMT-1 indicating the preference of these antibodies for non-methylated PP2Ac (FIG. 22). […]

T1 sequence (P67775 whole entry): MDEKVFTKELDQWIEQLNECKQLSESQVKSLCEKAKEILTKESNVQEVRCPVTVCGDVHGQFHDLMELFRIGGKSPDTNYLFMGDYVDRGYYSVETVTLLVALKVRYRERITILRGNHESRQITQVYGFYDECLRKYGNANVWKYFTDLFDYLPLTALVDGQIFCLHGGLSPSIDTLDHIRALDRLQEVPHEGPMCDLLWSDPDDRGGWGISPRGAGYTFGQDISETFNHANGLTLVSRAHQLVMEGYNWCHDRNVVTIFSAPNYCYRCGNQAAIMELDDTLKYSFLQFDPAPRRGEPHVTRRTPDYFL

B1: 7C10-C5: α-carboxymethylation specific mouse monoclonal IgG1 antibody from single clone hybridoma 7C10-C5 (DSM ACC3350) (antibody)
heavy: MYRMQLLSCIALSLALVTNSDVQLQESGPGLVKPSQSLSLTCSVTGYSITSGYYWNWIRQFPGNKLEWMGYISYDGSNNYNPSLKNRISITRDTSKNQFFLKLNSVTTEDTATYYCAGRFAYWGQGTLVTVSAAKTTAPSVYPLAPVCGDTTGSSVTLGCLVKGYFPEPVTLTWNSGSLSSGVHTFPAVLQSDLYTLSSSVTVTSSTWPSQSITCNVAHPASSTKVDKKIEPRGPTIKPCPPCKCPAPNLLGGPSVFIFPPKIKDVLMISLSPIVTCVVVDVSEDDPDVQISWFVNNVEVHTAQTQTHREDYNSTLRVVSALPIQHQDWMSGKEFKCKVNNKDLPAPIERTISKPKGSVRAPQVYVLPPPEEEMTKKQVTLTCMVTDFMPEDIYVEWTNNGKTELNYKNTEPVLDSDGSYFMYSKLRVEKKNWVERNSYSCSVVHEGLHNHHTTKSFSRTPGK
light: MDMRVPAQLLGLLLLWLSGARCDVLMTQTPLSLPVSLGDQASISCRSSQSIVHSNGNTYLEWYLQKPGQSPKLLIYKVSNRFSGVPDRFSGSGSGTDFTLKINRVEAEDLGVYYCFQGSHVPWTFGGGTKLEIKADAAPTVSIFPPSSEQLTSGGASVVCFLNNFYPKDINVKWKIDGSERQNGVLNSWTDQDSKDSTYSMSSTLTLTKDEYERHNSYTCEATHKTSTSPIVKSFNRNEC
modifications: Amino acid sequence of the recombinant 7C10-C5 heavy chain; Amino acid sequence of the recombinant 7C10-C5 light chain
- detection of PP2Ac in HAP1 cells that lack LCMT-1 (Lcmt-1-KO): no carboxymethylated PP2Ac specific signals were detected
- detection of PP2Ac in untreated versus NaOH treated cell lysates (HAP1, HEK293): only detected methylated PP2Ac in the untreated cell lysates but not in the NaOH treated lysates
